Reference: US20190119379A1 (BAYLOR COLLEGE OF MEDICINE, published 2019)

Biological target: T1, human CD47 on OV10 315 cells (human, UniProt Q08722 19-323)
T1 construct: whole, on cells
Experiment: FACS for Fc on YFP-negative OV10 315 cells 24 h after infection with SIRPα-Fc-VV

T1 sequence (Q08722 19-323): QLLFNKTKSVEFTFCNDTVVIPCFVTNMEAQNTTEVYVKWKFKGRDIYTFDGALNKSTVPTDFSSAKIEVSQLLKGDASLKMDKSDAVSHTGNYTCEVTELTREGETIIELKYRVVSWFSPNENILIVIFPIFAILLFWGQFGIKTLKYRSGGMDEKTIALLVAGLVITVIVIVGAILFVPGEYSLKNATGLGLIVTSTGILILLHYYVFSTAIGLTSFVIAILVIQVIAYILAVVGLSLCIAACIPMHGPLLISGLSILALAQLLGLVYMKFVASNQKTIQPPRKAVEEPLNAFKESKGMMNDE

B1: SIRPα-IgG4 Fc with derivative (CV1) of SIRPα ectodomain (Fc fusion)
chain: EEELQIIQPDKSVLVAAGETATLRCTITSLFPVGPIQWFRGAGPGRVLIYNQRQGPFPRVTTVSDTTKRNNMDFSIRIGNITPADAGTYYCIKFRKGSPDDVEFKSGAGTELSVRAKPSAAAPPCPPCPAPEFLGGPSVFLFPPKPKDTLMISRTPEVTCVVVDVSQEDPEVQFNWYVDGVEVHNAKTKPREEQFNSTYRVVSVLTVLHQDWLNGKEYKCKVSNKGLPSSIEKTISKAKGQPREPQVYTLPPSQEEMTKNQVSLTCLVKGFYPSDIAVEWESNGQPENNYKTTPPVLDSDGSFFLYSRLTVDKSRWQEGNVFSCSVMHEALHNHYTQKSLSLSPGK
notes: Secreted by tumor cells transduced with the lentiviral vector pCDH.CMV.SIRPα-Fc.EF1.GFPpuro or infected with SIRPα-Fc-VV; It was never purified; also called SIRPα-Fc; SIRPα-FC
binding result: binds
